The values that follow come from patent US20230052680A1.

A word on the Kd: it is the equilibrium constant for the complex coming apart. Broadly, the koff is the first-order rate constant of dissociation. Higher therefore signals fast dissociation. A word on the kon: it is the second-order rate constant of association. Lower therefore signals slower complex formation.

For this test, the target named is human FGFR2b (beta)-Fc (human) (UniProt P21802). The test can be described thus: surface plasmon resonance (Biacore T200), hFGFR2b-Fc amine-coupled to a CM5 chip, antibody injected. (In SPR one partner is held on a chip, and binding of the other changes the refractive index at the surface.)

Turning to FPA144 (antibody), the Kd was determined as 750 pM, the koff worked out at 7.77e-05 s⁻¹ and the kon was found to be 104000 M⁻¹ s⁻¹.
